Data from the Human Domainome abundance scans (Beltran et al. 2025).
± gives the uncertainty stated by the source.

B1: Homeobox expressed in ES cells 1, residues 110 to 165; numbered along this chain, Q9UBX0 (parent)
chain: RPRTAFTQNQIEVLENVFRVNCYPGIDIREDLAQKLNLEEDRIQIWFQNRRAKLKR

Variants of: B1
Test: abundance fitness (aPCA) (normalised: wild type 0, dead -1); higher = more abundant; growth selection in yeast, the domain comes from the species named
Conditions: Homo sapiens

Abundance fitness of substitutions, site by site:
I43: R -0.936 ± 0.26, K -0.451 ± 0.4, P -0.912 ± 0.44, Q -0.796 ± 0.46, E -0.966 ± 0.48, T -0.543 ± 0.31, L -0.581 ± 0.16, W -0.822 ± 0.16, G -0.98 ± 0.13, S -0.917 ± 0.25
E40: K -0.611 ± 0.26, H -0.282 ± 0.17, S -0.162 ± 0.1, W -0.928 ± 0.39, Q -0.047 ± 0.14, L -0.338 ± 0.13, I -0.205 ± 0.19, Y -0.57 ± 0.12, V -0.244 ± 0.13, D -0.119 ± 0.18, C -0.348 ± 0.076, R -0.167 ± 0.091, N -0.614 ± 0.31, G -0.399 ± 0.13, T -0.124 ± 0.11, F -0.078 ± 0.17, A 0.052 ± 0.091
G25: Y -0.741 ± 0.1, A -0.079 ± 0.16, K 0.11 ± 0.19, M -0.688 ± 0.21, H 0.151 ± 0.25, L -0.874 ± 0.28, V -1.11 ± 0.38, W -0.755 ± 0.11, Q -0.744 ± 0.4, S -0.106 ± 0.16, T -0.027 ± 0.12, E -0.065 ± 0.14, C -0.282 ± 0.25, P 0.187 ± 0.13
L36: W -0.132 ± 0.097, G -0.86 ± 0.15, S -0.855 ± 0.34, C -0.508 ± 0.31, H -0.712 ± 0.13, V -1.01 ± 0.21, M -0.11 ± 0.34, E -0.924 ± 0.34, R -0.984 ± 0.19, A -1.01 ± 0.36, F 0.221 ± 0.2, K -0.931 ± 0.36, D -0.862 ± 0.3
Q34: R 0.135 ± 0.095, A -0.423 ± 0.17, G -0.168 ± 0.074, T 0.046 ± 0.064, L -0.157 ± 0.12, Y -0.347 ± 0.32, E -0.076 ± 0.087, D -0.234 ± 0.17, N -0.216 ± 0.26, S -0.197 ± 0.13, I -0.106 ± 0.4, K -0.119 ± 0.18, H -0.129 ± 0.16
I26: D -0.297 ± 0.11, S -0.078 ± 0.094, E -0.19 ± 0.19, M -0.38 ± 0.3, Q 0.013 ± 0.14, A -0.057 ± 0.14, C -0.218 ± 0.15, K 0.305 ± 0.14, N 0.226 ± 0.23, W -0.138 ± 0.13, P 0.054 ± 0.21, G -0.319 ± 0.16, F -0.08 ± 0.2, Y -0.159 ± 0.066, T -0.341 ± 0.14, L 0.151 ± 0.12, R 0.002 ± 0.088
L38: D -0.665 ± 0.38, E -0.521 ± 0.25, C 0.151 ± 0.11, Y -0.717 ± 0.26, N -0.572 ± 0.27, F 0.009 ± 0.13, I 0.146 ± 0.12, P -0.533 ± 0.25, A -0.181 ± 0.14, W -0.885 ± 0.36, V 0.061 ± 0.065, Q -0.223 ± 0.39, K -0.685 ± 0.42, R -0.849 ± 0.1, S -0.259 ± 0.11, G -0.952 ± 0.19, T 0.077 ± 0.074
Y23: S -0.04 ± 0.092, V -0.546 ± 0.21, W -0.063 ± 0.091, T -0.137 ± 0.2
N37: F -0.195 ± 0.23, H -0.343 ± 0.3, I -0.431 ± 0.38, Q -0.189 ± 0.085, W -0.863 ± 0.47, D -0.151 ± 0.31, Y -0.634 ± 0.15, K -0.032 ± 0.079, L -0.312 ± 0.13, T -0.258 ± 0.12, M -0.613 ± 0.36, E -0.138 ± 0.13, S -0.459 ± 0.22, G 0.093 ± 0.098, C -0.18 ± 0.065, P -0.051 ± 0.23
D27: R 0.137 ± 0.1, V -0.314 ± 0.086, S 0.233 ± 0.091, C -0.155 ± 0.081, E 0.075 ± 0.091, Q 0.203 ± 0.23, L -0.271 ± 0.14, G -0.02 ± 0.07, H -0.503 ± 0.38, W -0.526 ± 0.18, A -0.259 ± 0.15, P -0.128 ± 0.22, K -0.185 ± 0.16, M -0.134 ± 0.1, N 0.034 ± 0.38, I -0.484 ± 0.43
A33: G -0.242 ± 0.079, C -0.186 ± 0.31, S -0.124 ± 0.09, W -0.694 ± 0.16, I -0.703 ± 0.2, M -0.252 ± 0.33, L -0.89 ± 0.1, K -0.566 ± 0.33, V -0.363 ± 0.16, Y -0.396 ± 0.23, E -0.848 ± 0.29, Q 0.36 ± 0.48
I28: Y -0.309 ± 0.23, W -0.577 ± 0.17, L -0.209 ± 0.14, C -0.534 ± 0.41, G -0.692 ± 0.21, R -0.667 ± 0.16, Q -0.171 ± 0.14, V 0.045 ± 0.13, E -0.176 ± 0.14, A -0.089 ± 0.16, M -0.655 ± 0.27, K -0.852 ± 0.33, S -0.505 ± 0.091, P -0.725 ± 0.19
K35: Q -0.197 ± 0.19, R -0.194 ± 0.075, M -0.377 ± 0.1, I -0.468 ± 0.18, E 0.05 ± 0.13, V -0.694 ± 0.18, G -0.657 ± 0.14, N -0.317 ± 0.15, F -0.603 ± 0.28, W -0.743 ± 0.11, P -1.15 ± 0.3, S -0.487 ± 0.14, H -0.651 ± 0.47, Y -0.364 ± 0.29, C -0.515 ± 0.3
D41: M -0.174 ± 0.14, F -0.139 ± 0.12, G -0.171 ± 0.094, E 0.08 ± 0.1, K -0.174 ± 0.23, C -0.081 ± 0.15, H -0.039 ± 0.31, R 0.026 ± 0.073, T 0.023 ± 0.11, P -0.044 ± 0.15, I -0.027 ± 0.17, Q -0.012 ± 0.21, V -0.095 ± 0.13, S 0.115 ± 0.11, N 0.665 ± 0.18, W 0.055 ± 0.15
R42: C -0.03 ± 0.12, W 0.065 ± 0.22, I 0.055 ± 0.3, Q 0.351 ± 0.3, Y 0.037 ± 0.36, H -0.05 ± 0.077, D -0.361 ± 0.25, S 0.096 ± 0.078, A 0.076 ± 0.11, L -0.156 ± 0.16, K 0.184 ± 0.3, V 0.135 ± 0.072, N 0.049 ± 0.15, T 0.257 ± 0.14, G -0.399 ± 0.11, E 0.255 ± 0.2
E39: W -0.752 ± 0.23, C -0.104 ± 0.088, V -0.619 ± 0.12, S 0.02 ± 0.082, Q -0.185 ± 0.15, A -0.144 ± 0.18, R -0.34 ± 0.11, L -0.507 ± 0.12, G -0.154 ± 0.098, I -1.06 ± 0.36, Y -0.675 ± 0.12, K -0.476 ± 0.45, N -0.241 ± 0.26, M -0.562 ± 0.15, D 0.333 ± 0.33
L32: T -0.495 ± 0.24, A -0.832 ± 0.17, W -0.386 ± 0.17, K -0.833 ± 0.18, D -0.826 ± 0.45, M -0.689 ± 0.23, P -0.884 ± 0.46, I -0.363 ± 0.4, V -0.685 ± 0.13, R -0.886 ± 0.1, E -0.824 ± 0.45, G -0.904 ± 0.12, F -0.757 ± 0.24, S -0.787 ± 0.14, Q -0.487 ± 0.41
D31: M -0.32 ± 0.25, P -0.675 ± 0.36, L -0.411 ± 0.087, R -0.032 ± 0.056, K 0.679 ± 0.15, V -0.425 ± 0.09, W -0.532 ± 0.2, I 0.221 ± 0.4, C -0.468 ± 0.16, F 0.535 ± 0.19, N 0.066 ± 0.15, T -0.568 ± 0.41, Y -0.158 ± 0.21, A -0.106 ± 0.14
E30: A -0.023 ± 0.1, N 0.514 ± 0.16, D -0.18 ± 0.18, G -0.131 ± 0.083, V -0.186 ± 0.073, C -0.063 ± 0.091, R 0.196 ± 0.1, F 0.048 ± 0.17, L 0.134 ± 0.083, I 0.099 ± 0.12, W -0.002 ± 0.2, S -0.209 ± 0.15, P -0.781 ± 0.41, M -0.189 ± 0.23, H 0.234 ± 0.15, K 0.169 ± 0.28, Y -0.544 ± 0.33
P24: K 0.273 ± 0.27, L -0.392 ± 0.25, D -0.606 ± 0.39, C -1.09 ± 0.24, W -0.896 ± 0.17, G -0.641 ± 0.17, R -0.995 ± 0.23, E -0.644 ± 0.34, M -0.815 ± 0.14, Y -0.366 ± 0.37, V -0.793 ± 0.15, Q -0.314 ± 0.23, I -0.662 ± 0.23
I45: K 0.193 ± 0.19, T 0.114 ± 0.11, G -0.031 ± 0.083, F 0.157 ± 0.21, N 0.166 ± 0.2, R 0.033 ± 0.099, D 0.052 ± 0.2, E 0.079 ± 0.13, L -0.026 ± 0.1, Q 0.108 ± 0.069, W 0.444 ± 0.15, C 0.196 ± 0.14, M -0.049 ± 0.097, H -0.166 ± 0.12
R29: C -0.019 ± 0.13, P -0.708 ± 0.1, Y -0.284 ± 0.18, A -0.093 ± 0.12, K -0.691 ± 0.28, Q -0.299 ± 0.32, S -0.709 ± 0.17, V 0.011 ± 0.096, W -0.18 ± 0.15, N -0.864 ± 0.47, D -0.749 ± 0.22, I -0.2 ± 0.17, T 0.183 ± 0.16, G -0.704 ± 0.17, F -0.198 ± 0.18, M 0.303 ± 0.33, E -1.23 ± 0.44, L -0.222 ± 0.15
Q44: W -0.277 ± 0.23, C 0.033 ± 0.085, H 0.35 ± 0.18, A 0.087 ± 0.14, G -0.206 ± 0.12, M -0.12 ± 0.26, P -0.982 ± 0.31, E -0.532 ± 0.33, T 0.038 ± 0.1, K 0.179 ± 0.17, F -0.385 ± 0.28, N -0.059 ± 0.26, D -0.007 ± 0.17, I 0.061 ± 0.12, Y -0.582 ± 0.33, V -0.161 ± 0.12, L -0.079 ± 0.11, S -0.129 ± 0.08
